Reference: article doi:10.1101/634915 (bioRxiv, 2019)

Biological target: RlucII-Rab7A (UniProt P51149 1-207)
Assay: FRET or BRET

RlucII-Rab7A, sequence (P51149 whole entry): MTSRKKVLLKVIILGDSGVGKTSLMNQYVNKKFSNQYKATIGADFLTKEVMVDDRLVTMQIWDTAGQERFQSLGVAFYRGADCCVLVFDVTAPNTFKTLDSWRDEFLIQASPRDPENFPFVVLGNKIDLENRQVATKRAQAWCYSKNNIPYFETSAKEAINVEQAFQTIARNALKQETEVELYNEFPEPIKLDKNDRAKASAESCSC

fold change of BRET50, CLN3-KO against wild-type HeLa cells: 3.5 fold
B1: PLEKHM1-GFP10 (natural protein, UniProt Q9Y4G2 1-1056, looked up)
chain: MLSVVENGLDPQAAIPVIKKKLVGSVKALQKQYVSLDTVVTSEDGDANTMCSALEAVFIHGLHAKHIRAEAGGKRKKSAHQKPLPQPVFWPLLKAVTHKHIISELEHLTFVNTDVGRCRAWLRLALNDGLMECYLKLLLQEQARLHEYYQPTALLRDAEEGEFLLSFLQGLTSLSFELSYKSAILNEWTLTPLALSGLCPLSELDPLSTSGAELQRKESLDSISHSSGSEDIEVHHSGHKIRRNQKLTASSLSLDTASSSQLSCSLNSDSCLLQENGSKSPDHCEEPMSCDSDLGTANAEDSDRSLQEVLLEFSKAQVNSVPTNGLSQETEIPTPQASLSLHGLNTSTYLHCEAPAEPLPAQAASGTQDGVHVQEPRPQAPSPLDLQQPVESTSGQQPSSTVSETAREVGQGNGLQKAQAHDGAGLKLVVSSPTSPKNKSWISEDDFYRPSREQPLESASDHPIASYRGTPGSRPGLHRHFSQEPRKNCSLGALDQACVPSPGRRQAQAAPSQGHKSFRVVHRRQMGLSNPFRGLMKLGTVERRGAMGIWKELFCELSPLEFRLYLSNEEHTCVENCSLLRCESVGPAHSDGRFELVFSGKKLALRASSQDEAEDWLDRVREALQKVRPQQEDEWVNVQYPDQPEEPPEAPQGCLSPSDLLSEPAALQGTQFDWSSAQVPEPDAIKESLLYLYMDRTWMPYIFSLSLEALKCFRIRNNEKMLSDSHGVETIRDILPDTSLGGPSFFKIITAKAVLKLQAGNAEEAALWRDLVRKVLASYLETAEEAVTLGGSLDENCQEVLKFATRENGFLLQYLVAIPMEKGLDSQGCFCAGCSRQIGFSFVRPKLCAFSGLYYCDICHQDDASVIPARIIHNWDLTKRPICRQALKFLTQIRAQPLINLQMVNASLYEHVERMHLIGRRREQLKLLGDYLGLCRSGALKELSKRLNHRNYLLESPHRFSVADLQQIADGVYEGFLKALIEFASQHVYHCDLCTQRGFICQICQHHDIIFPFEFDTTVRCAECKTVFHQSCQAVVKKGCPRCARRRKYQEQNIFA
